Legend:
[1] = tested on: HP1α (untagged, wt); test: EMSA; settings: 20 mM HEPES pH 7.5, 70 mM KCl, 1 mM DTT
[2] = tested on: HP1α-16aa-mEGFP; test: EMSA; settings: 20 mM HEPES pH 7.5, 70 mM KCl, 1 mM DTT

187 bp DNA
K half [1]: 880 nM
K half [2]: 580 nM
